Results as given in US20250011418A1 (ZIELBIO, published 2025).
Positions count from the first letter of the chain named.

B1: humanized anti-CSP-1 antibody, Antibody Number 16 (Table 1) (antibody, human IgG1, V domains shown)
VH: EVQLVESGGDLVKPGGSLKLSCAASGFTFSRYGMSWVRQTPDKRLEWVATISIGGTYTYYPDSMKGRFTISRDNAKNTLYLQMSSLKSEDTAMYYCARRGYGNYSYYGMDYWGQGTSVTVSS
VL: DIVMTQAAFSNPVTLGTSASISCRSSKSLLHSNGITYLYWYLQKPGQSPQLLIYQMSNLASGVPDRFSSSGSGTDFTLRISRVEAEDVGVYYCAQNLELPLTFGAGTKLELK
notes: also called Antibody 16
B2: humanized anti-CSP-1 antibody, Antibody Number 24 (Table 1) (antibody, human IgG1, V domains shown)
VH: B1 VH
VL: B1 VL with N33D
notes: also called Antibody 24
B3: humanized anti-CSP-1 antibody, Antibody Number 26 (Table 1) (antibody, human IgG1, V domains shown)
VH: B1 VH
VL: B1 VL with N33E
notes: also called Antibody 26
B4: humanized anti-CSP-1 antibody, Antibody Number 22 (Table 1) (antibody, human IgG1, V domains shown)
VH: B1 VH
VL: B1 VL with N33S
notes: also called Antibody 22
B5: humanized anti-CSP-1 antibody, Antibody Number 18 (Table 1) (antibody, human IgG1, V domains shown)
VH: B1 VH with N103Q
VL: B1 VL
notes: also called Antibody 18
B6: humanized anti-CSP-1 antibody, Antibody Number 20 (Table 1) (antibody, human IgG1, V domains shown)
VH: B1 VH with M109I
VL: B1 VL
notes: also called Antibody 20
B7: humanized anti-CSP-1 antibody, Antibody Number 23 (Table 1) (antibody, human IgG1, V domains shown)
VH: B1 VH
VL: B1 VL with N33V
notes: also called Antibody 23
B8: humanized anti-CSP-1 antibody, Antibody Number 19 (Table 1) (antibody, human IgG1, V domains shown)
VH: B1 VH with M109L
VL: B1 VL
notes: also called Antibody 19
B9: humanized anti-CSP-1 antibody, Antibody Number 17 (Table 1) (antibody, human IgG1, V domains shown)
VH: B1 VH with N103S
VL: B1 VL
notes: also called Antibody 17
B10: humanized anti-CSP-1 antibody, Antibody Number 21 (Table 1) (antibody, human IgG1, V domains shown)
VH: B1 VH with M109V
VL: B1 VL
notes: also called Antibody 21
B11: humanized anti-CSP-1 antibody, Antibody Number 25 (Table 1) (antibody, human IgG1, V domains shown)
VH: B1 VH
VL: B1 VL with N33Q
notes: also called Antibody 25
B12: humanized anti-CSP-1 antibody, Antibody Number 7 (Table 1) (antibody, human IgG1, V domains shown)
VH: QIQLVQSGPEVKKPGASVKISCKASGYTFTDYSMHWVKQAPGQGLKWMGWINTETGEPTYADDFKGRFTFTLDTSTSTAYLEISSLRSEDTATYFCAPGGFAYWGQGTLVTVSS
VL: DIVMTQAAPSVPVTPGESVSISCRSSKSLLHSNGNTYLYWFLQRPGQSPQLLIYRMSNLASGVPDRFSGSGSGTAFTLRISRVEAEDVGVYYCMQHLEYPLTFGAGTKLELK
notes: also called Antibody 7
B13: humanized anti-CSP-1 antibody, Antibody Number 15 (Table 1) (antibody, human IgG1, V domains shown)
VH: QIQLVQSGPGLKQPGGSVRISCAASGYTFTDYSMHWVKQAPGKGLKWMGWINTETGEPTYADDFKGRFTFSLDTSKSTAYLQINSLRAEDTATYFCAPGGFAYWGQGTLVTVSS
VL: B12 VL with A7S, V11L, E17Q, R44K, L59R, A75D, R79K, A105Q, L111I
notes: also called Antibody 15
B14: humanized anti-CSP-1 antibody, Antibody Number 14 (Table 1) (antibody, human IgG1, V domains shown)
VH: B13 VH
VL: B12 VL with A7S, E17Q, R44K, L59R, A75D, R79K, A105Q, L111I
notes: also called Antibody 14
B15: humanized anti-CSP-1 antibody, Antibody Number 13 (Table 1) (antibody, human IgG1, V domains shown)
VH: B12 VH with K38R, K46E, D62Q, D63K, K65Q, T93V
VL: B12 VL with A7S, E17Q, R44K, L59R, A75D, R79K, A105Q, L111I
notes: also called Antibody 13
B16: humanized anti-CSP-1 antibody, Antibody Number 12 (Table 1) (antibody, human IgG1, V domains shown)
VH: B12 VH
VL: B12 VL with A7S, V11L, E17Q, R44K, L59R, A75D, R79K, A105Q, L111I
notes: also called Antibody 12

Molecular target: T1, Sec8-His (section 8 (Sec8), an antigenic region of CSP-1, tagged with a polyhistidine (His) tag)
T1 construct: also called Sec8-His antigen
T1 chain: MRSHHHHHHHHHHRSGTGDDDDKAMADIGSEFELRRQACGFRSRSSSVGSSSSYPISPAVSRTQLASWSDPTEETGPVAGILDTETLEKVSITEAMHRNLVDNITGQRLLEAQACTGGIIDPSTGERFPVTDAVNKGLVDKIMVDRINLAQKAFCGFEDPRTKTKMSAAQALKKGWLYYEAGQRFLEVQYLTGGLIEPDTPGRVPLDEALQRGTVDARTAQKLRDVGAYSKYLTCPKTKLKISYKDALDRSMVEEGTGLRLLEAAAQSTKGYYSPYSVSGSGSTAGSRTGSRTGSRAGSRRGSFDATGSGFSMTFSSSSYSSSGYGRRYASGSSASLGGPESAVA
Experiment: BLI (Octet), single shot: antibody on anti-human IgG tips, 24 nM Sec8-His
Procedure: After humanization, the antibodies were tested for their capability to bind to an antigenic region of CSP-1 called section 8 (Sec8). Antigen binding was assessed by single-shot Octet analysis. Antibodies were loaded onto anti-human IgG tips, and the loaded tips were dipped into wells containing the Sec8-His antigen. Scouting experiments were used to determine ideal conditions for loading (10 minute incubation in 1 μg/mL IgG) and antigen binding (5 minute incubation in 24 nM Sec8-His, followed by a 5 minute dissociation step in buffer). Two negative controls were included with each experiment. First, a tip was loaded with irrelevant IgG dipped into 24 nM Sec8-His to control for non-specific interactions between the tip and the antigen. Next, tips loaded with humanized 1D7 variants were dipped into 24 nM GST-His to control for off-target binding of the antibody (a significant risk if a given variant is destabilized and/or exposes significant hydrophobic surface). The data from the irrelevant IgG control were subtracted from the data obtained with the […]-loaded tips. The mean and standard deviation of the signal change values for the GST-His control wells were used to calculate a threshold for positive binding (mean+3 standard deviations of the GST-His signal). Variants that were below this threshold are considered to have no specific binding to Sec8.

Binder	binding result
B1	binds
B2	binds
B3	binds
B4	binds
B5	binds
B6	binds
B7	binds
B8	binds
B9	binds
B10	binds
B11	binds
B12	binds
B13	binds
B14	binds
B15	binds
B16	binds
